Columns and labels:
[1] = tested on: non-histamine dependent (CQ) itch in mice; assay: Chloroquine (CQ)-induced itch in mice; type: in vivo, mouse; settings: i.v. cilengitide 100 nM 10 minutes prior to CQ 100 μg/10 μl
Protocol: (§1) All behavioral experiments were conducted during the light cycle at ambient temperature (23° C.). Behavioral assessment of scratching behavior was conducted as described previously (Mishra et al., 2011). Briefly, mice were injected intradermal into the nape of the neck with periostin (R&D), histamine, and chloroquine (all Millipore-Sigma) as previously described (Shimada and LaMotte, 2008). Compounds were diluted in PBS and the same was used as a vehicle. […] Additionally, cilengitide and periostin were combined together (mix) and injected i.d. into the dorsal neck of mouse. Scratching behavior was recorded for 30 minutes and data was presented in bouts per 30 minutes for mice. […] For eye wipes assay, periostin and capsaicin were dropped on mouse cornea and counted wipes for 1-minute. […] For dog's study, periostin (25 μg/25 μl) was injected in the dorsal neck (s.c.) and behavior was recorded and quantified for 30 minutes as “duration of pruritus manifestation” (DPM), as described earlier (Paps et al., 2016). […] When different raters separately scored a single tape, the ratings indicated high interrater reliability (coefficient of correlation, r>0.95). This method of itch readout in NHP has been used and accepted (Ko and Naughton, 2000). The behavior was recorded for 30 minutes duration and number of scratches quantified. […]

[2] = tested on: histamine-dependent itch in mice; assay: Histamine-induced itch in mice; type: in vivo, mouse; settings: i.v. cilengitide 100 nM 10 minutes prior to histamine 100 μg/10 μl
Protocol: as §1

[3] = tested on: MC903-induced spontaneous chronic itch in mice; assay: MC903-induced mouse model of atopic dermatitis, spontaneous scratching; type: in vivo; settings: cilengitide 100 nM by tail vein injection, Day 10
Protocol: C57BL6 mice (Jackson Labs, Ellsworth, Maine, United States of America) were applied daily with MC903 (4 nmol) and vehicle (97% ethanol) after brief anesthesia. Skin thickness was measured using cutimeter as described (Fukuyama et al., 2015). Scratching behavior was video-monitored for 30 min on Day 1 and Day 7. On Day 7 skin was collected from vehicle and MC903 treated mice for the Western Blot (WB) as described below. NC/Nga mice (Charles River, Yokohama, Japan) were sensitized and challenged with house dust mite (HDM) allergen (Dermatophagoides farina, Greer, Lenoir, N.C., United States of Amercia) as described previously (Fukuyama et al., 2018). […] Scratching behavior was video monitored for 60 min period immediately after HDM on day 42. […] The amount of periostin was determined using ELISA according to the manufacturer's instruction.
A mouse model of atopic dermatitis in mice is generated. […] At Day 10, vehicle or the compound (at least one dose) is administered intravenous/orally to the animals, and then measured the scratching behaviors for at least 60 min. In order to see the sub-chronic effect of the compound, vehicle and the compound is administered to MC903-treated animals for several days and the alteration of the scratching behaviors is measured.

[4] = tested on: Mouse bone marrow-derived mast cells; assay: Mast cell degranulation (β-hexoseaminidase release); type: cell-based; settings: increasing concentrations, 30 minutes challenge
Protocol: Mouse bone marrow-derived mast cells were cultured from femurs of C57B1/6J mice as described (Jensen et al., 2006). Degranulation was assessed by measuring β-hexoseaminidase release as described (Cruse et al., 2013) using mast cells sensitized with 100 ng/mL anti-DNP IgE (SPE7 clone) (Sigma Aldrich, St. Louis, Miss., United States of America) for 16 hours, before the cells were challenged for 30 minutes with the indicated stimulus.

C57BL6J mice = assay: Mouse cheek itch/pain model; type: in vivo; settings: periostin 5 μg/20 μl into the cheek
Protocol: as §1

BMMC mast cells = assay: Calcium imaging on mast cells; type: cell-based, mouse; settings: mast cells stimulated with periostin alone
Protocol: Changes in cytosolic Ca^2+ were assayed using ratiometric Fura-2 AM measurements as described (Cruse et al., 2013). Fluorescence was measured at two excitation wavelengths (340 and 380 nm) and an emission wavelength of 510 nm using a BioTek Neo2 multimode plate reader (BioTek, Winooski, Vt., United States of America). The ratio of fluorescence readings was calculated following subtraction of background fluorescence of cells not loaded with Fura-2 AM.

dogs = assay: Periostin injection in dogs, pruritus manifestations; type: in vivo, dog; settings: mouse recombinant periostin 25 μg/100 μl intradermally, neck, within 15 minutes

## CC(C)[C@H]1C(=O)N[C@@H](CCCN=C(N)N)C(=O)NCC(=O)N[C@@H](CC(=O)O)C(=O)N[C@H](Cc2ccccc2)C(=O)N1C [cilengitide, cyclo RGDf-n(Me)V]
[1]
  CQ-induced itch (scratching bouts per 30 minutes): inhibits
[2]
  histamine-induced itch (scratching bouts per 30 minutes): inhibits
[3]
  MC903-induced spontaneous itching: significantly reduced

B1: periostin: fasciclin extracellular matrix protein, endogenous ligand of integrin αvβ3; mouse recombinant used (protein)
chain: NSYYDKVLAHSRIRGRDQGPNVCALQQILGTKKKYFSSCKNWYQGAICGKKTTVLYECCPGYMRMEGMKGCPAVMPIDHVYGTLGIVGATTTQHYSDVSKLREEIEGKGSYTYFAPSNEAWENLDSDIRRGLENNVNVELLNALHSHMVNKRMLTKDLKHGMVIPSMYNNLGLFINHYPNGVVTVNCARVIHGNQIATNGVVHVIDRVLTQIGTSIQDFLEAEDDLSSFRAAAITSDLLESLGRDGHFTLFAPTNEAFEKLPRGVLERIMGDKVASEALMKYHILNTLQCSEAITGGAVFETMEGNTIEIGCEGDSISINGIKMVNKKDIVTKNGVIHLIDEVLIPDSAKQVIELAGKQQTTFTDLVAQLGLASSLKPDGEYTLLAPVNNAFSDDTLSMDQRLLKLILQNHILKVKVGLSDLYNGQILETIGGKQLRVFVYRTAICIENSCMVRGSKQGRNGAIHIFREIIQPAEKSLHDKLRQDKRFSIFLSLLEAADLKDLLTQPGDWTLFAPTNDAFKGMTSEERELLIGDKNALQNIILYHLTPGVYIGKGFEPGVTNILKTTQGSKIYLKGVNETLLVNELKSKESDIMTTNGVIHVVDKLLYPADIPVGNDQLLELLNKLIKYIQIKFVRGSTFKEIPMTVYRPAMTKIQIEGDPDFRLIKEGETVTEVIHGEPVIKKYTKIIDGVPVEITEKQTREERIITGPEIKYTRISTGGGETGETLQKFLQKEVSKVTKFIEGGDGHLFEDEEIKRLLQGDTPAKKIPANKRVQGPRRRSREGRSQ
[4]
  degranulation of anti-DNP IgE-sensitized mast cells: no degranulation
C57BL6J mice
  scratching behavior, cheek injection: robust scratching behavior similar to that of histamine
C57BL6J mice; compared to capsaicin
  wiping (pain behavior), cheek injection: did not induce wiping
BMMC mast cells
  calcium release in mast cells: no periostin-dependent change in calcium release
dogs
  itch after periostin injection in dogs: robust scratching
